The record followed here is patent US5885797.

To fix the notation:
B1: I-mfa (protein)
chain: MSQVSGQCPSRCDAPHGVPSAALDPAQTMSLLPGLEVARSTHPVEASSEEGFPEEAAPSMPHDSGLRAQQALNSIDLDVPTEAVTCQPQGNPQGCTPLLPNGSSHDHLSEPGSAGHAGNGALGGSKAHRKLQTHPSLGSQAGRKSRGSARSASQVPLQAQEDCCVHCILSCLFCEFLTLCNILLDCATCGSCSSEDSCLCCCCCGSGECADCDLPCDLDCGIVDACCESADCLEICMECCGLCFSS
B2: I-mfc (protein)
chain: MSQVSGQCPSRCDAPHGVPSAALDPAQTMSLLPGLEVARSTHPVEASSEEGFPEEAAPSMPHDSGLRAQQALNSIDLDVPTEAVTCQPQGNPQGCTPLLPNGSSHDHLSEPGSAGHAGNGALGGSKAHRKLQTHPPQPPNRSAFRRVAWSPPRVTRNTASRAW
B3: I-mfb (protein)
chain: MSQVSGQCPSRCDAPHGVPSAALDPAQTMSLLPGLEVARSTHPVEASSEEGFPEEAAPSMPHDSGLRAQQALNSIDLDVPTEAVTCQPQGNPQGCTPLLPNGSSHDHLSEPGSAGHAGNGALGGSKAHRKLQTHPSLGSQAGRKSRGSARSASQVPLQAQEGKAPAVRIHRQTASPTCCLRNAQLSGTALRSLRLESQGHRELNNKTLSQSNNKKPGVAAHAAIIPALTRPKQNCHDPSLLPGTHGVGKEF

The test concerns the target E12.
B1 had a Relative CAT Activity (%), p4R-TK-CAT, NIH3T3 of 76.3%.

For the molecule B2, the Relative CAT Activity (%), p4R-TK-CAT, NIH3T3 was 93.8%.

B3 registered a Relative CAT Activity (%), p4R-TK-CAT, NIH3T3 of 98.7%.
